Measurements as given in patent US20190002553A1.

Experiments:
murine IL-11 (mouse) = murine IL-11 (mouse) (UniProt P47873); assay: cell-based or functional assay
[1] = target: human IL-11 (Interleukin 11) (human) (UniProt P20809); assay: cell-based or functional assay
UniProt P20809, sequence (P20809 22-199 limits assumed): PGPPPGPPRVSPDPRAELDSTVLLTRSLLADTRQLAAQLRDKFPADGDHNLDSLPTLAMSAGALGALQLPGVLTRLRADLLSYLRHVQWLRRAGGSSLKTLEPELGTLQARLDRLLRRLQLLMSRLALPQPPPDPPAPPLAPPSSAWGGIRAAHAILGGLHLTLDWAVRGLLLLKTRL

UniProt P47873, sequence (P47873 22-199 limits assumed): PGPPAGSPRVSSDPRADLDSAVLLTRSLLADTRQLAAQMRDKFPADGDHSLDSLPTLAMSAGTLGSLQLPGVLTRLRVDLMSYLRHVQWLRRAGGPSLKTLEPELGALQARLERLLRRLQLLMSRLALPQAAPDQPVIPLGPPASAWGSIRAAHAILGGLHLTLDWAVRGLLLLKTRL

percentage of activated fibroblasts normalised to non-stimulated cultures (=1) (fold of non-stimulated cultures) (murine IL-11 (mouse)): 1.24 | percentage of activated fibroblasts, TGFβ1-stimulated mouse atrial fibroblasts, relative to unstimulated cultures (murine IL-11 (mouse)): 1.44 fold | percentage of activated fibroblasts, TGFβ1-stimulated mouse dermal fibroblasts (murine IL-11 (mouse)): 39.4% | percentage of activated (αSMA-positive) fibroblasts, TGFβ1-stimulated human atrial fibroblasts [1]: 28.3% | percentage of activated fibroblasts normalised to non-stimulated cultures (=1) (fold of non-stimulated cultures) [1]: 0.99 | percentage of activated fibroblasts, TGFβ1-stimulated human atrial fibroblasts, relative to unstimulated cultures [1]: 0.89 fold
Substance: neutralising anti-human IL-11 monoclonal antibody (Monoclonal Mouse IgG2A; Clone #22626; Catalog No. MAB218; R&D Systems)
